Results on 1 substance are retold here after patent US9872831B2 (ALFASIGMA S.P.A., priority 2011, dated 2018).

A short description of data set [1]: Uptake of i.v. 111In-ST2210 in lung and non target organs 24 h after inhalation exposure.
Protocol: Twenty Sprague Dawley rats were divided in three different groups.
All rats were sacrificed 2 hours after the i.v. administration of ^111In-ST2210, and samples of blood, spleen, kidney, liver, stomach, brain, trachea, and tissue samples of different portions of lung were collected, weighed and analyzed with the use of a gamma-counter (Perkin Elmer). Data were expressed as the % of injected dose/gram of tissue (% ID/g).
The nature of data set [2]: PET imaging of i.v. 64Cu-ST2210 after nebulised oxidized avidin. The format is in vivo, Balb/c mice. Particulars: 64Cu-ST2210 1 μg i.v. 24 h after aerosol; PET 4 hours after. As for the experimental part:
After 24 hours, they received an intravenous 1 μg dose of ^64Cu-ST2210. ^64Cu-ST2210 distribution was examined by PET imaging 4 hours after. […] Kidneys, bladder are visible in both groups of mice. This observation is consistent with the physiological elimination of ST2210 at that time point.

Data set [3] in a line: Chemical integrity of oxidized avidin after nebulisation (HPLC). The format is physicochemical. The conditions noted are these: 3.0 mg/ml in 100 mM sodium acetate pH 5.5, nebulised 1 hour at room temperature. The source says:
The particle size of the protein solution midst was 5 μm. The nebulised solution was recovered in a falcon tube and analyzed by HPLC.

Data set [4] deals with A431 cells. The experiment in a line: Inhibition of proliferation, Cell Titer Glow assay. Particulars: oxidized avidin alone compared with medium only (data not shown). The format is cell-based, Human. As for the experimental part:
Proliferation inhibition was measured by Cell Titer Glow assay, Promega.
Background: In ATP-based viability assays light output follows the ATP content of the culture.

Data set [5] is described as follows: Biodistribution of i.v. 111In-ST2210 after nebulised oxidized avidin. The format is in vivo, Balb/c mice. The conditions noted are these: nebulised 1 hour (about 90 mg/kg); 111In-ST2210 i.v. 24 h later; sacrifice after 2 or 24 hours. As for the experimental part:
A biodistribution experiment aimed at determining the lung uptake selectivity and stability of ^111In-ST2210 was conducted. […] Twenty four hours after, all mice received ^111In-ST2210 intravenously (i.e., 1 μg in 0.2 ml of saline), and after further 2 or 24 hours, the animals were sacrificed by CO2 asphyxia. The lung and non target organs were collected weighed and counted in a gamma counter.

The nature of data set [6]: Immunohistochemistry of lung sections with anti-avidin antibody after aerosol exposure. Particulars: 24 hours after aerosol exposure. It is filed as in vivo, Balb/c mice. As for the experimental part: The lungs were removed and fixed in formalin and paraffin embedded. Serial sections obtained by means of a microtome were processed and incubated with a HRP-conjugated rabbit anti-avidin antibody (GeneTex, USA) and then with DAB substrate.

The nature of data set [7]: Linkage of instilled oxidized avidin to surgically lesioned bladder, PET with i.v. 68-Ga-ST2210. It is filed as in vivo, pig. The conditions noted are these: 1 h instillation, PET 4 h after 68-Ga-ST2210 i.v. As for the experimental part:
Anesthetised female pig of about 40 kg was subjected to surgery to generate two 2 cm superficial lesions on the bladder wall. […] Bladder was then washed with saline and 0.5 μg 68-Ga-ST2210 was i.v. administered. After 4 hours the pig was subjected to PET.

For “Oxidized avidin: chemically oxidized avidin according to example 1 of WO2009016031, about 8 to 15 aldehyde moieties”, the “111In-ST2210 % ID/g Blood” value in data set [1] (Blood, 2 h after i.v. 111In-ST2210, 24 h after inhalation (about 10 mg/kg)) came to 0.012 ± 0.004 % ID/g. Also, the “111In-ST2210 % ID/g Kidney” value in data set [1] (Kidney, 2 h after i.v. 111In-ST2210, 24 h after inhalation) was 0.414 ± 0.033 % ID/g. For the same substance, in data set [1] (Liver, 2 h after i.v. 111In-ST2210, 24 h after inhalation), the “111In-ST2210 % ID/g Liver” value was 0.051 ± 0.005 % ID/g. Also, the “111In-ST2210 % ID/g Lung dx (caudal lobe)” value in data set [1] (Lung dx (caudal lobe), 2 h after i.v. 111In-ST2210, 24 h after inhalation) came to 0.055 ± 0.009 % ID/g. The “111In-ST2210 % ID/g Lung dx (cranial, middle and accessory lobe)” value in data set [1] (Lung dx (cranial, middle and accessory lobe), 2 h after i.v. 111In-ST2210, 24 h after inhalation) was 0.055 ± 0.011 % ID/g. Also, the “111In-ST2210 % ID/g Lung sn” value in data set [1] (Lung sn, 2 h after i.v. 111In-ST2210, 24 h after inhalation) is 0.053 ± 0.008 % ID/g. In addition, in data set [1] (Lung, 2 h after i.v. 111In-ST2210, 24 h after inhalation), the “111In-ST2210 % ID/g Lung” value was found to be 0.054 ± 0.009 % ID/g. For the same substance, the “111In-ST2210 % ID/g Spleen” value in data set [1] (Spleen, 2 h after i.v. 111In-ST2210, 24 h after inhalation) is on record as 0.032 ± 0.002 % ID/g. In data set [1] (Stomach, 2 h after i.v. 111In-ST2210, 24 h after inhalation), the “111In-ST2210 % ID/g Stomach” value came out at 0.276 ± 0.246 % ID/g. For the same substance, the “111In-ST2210 % ID/g Trachea” value in data set [1] (Trachea, 2 h after i.v. 111In-ST2210, 24 h after inhalation) was 0.029 ± 0.007 % ID/g. Further, the “organ linkage of nebulised oxidized avidin” value in data set [1] (lung versus trachea) is recorded as “bound to the lung but not to the trachea”. Besides, the “64Cu-ST2210 PET signal in the lungs” value in data set [2] is “presence of a radioactive signal in the lungs”. In addition, the “HPLC elution profile pre and post nebulisation” value in data set [3] is “same elution profile”. The “effect on cell proliferation” value in data set [4] is “did not affect cell proliferation”. Also, in data set [5], the “uptake of 111In-ST2210 in the lung” value was “specific and significant uptake”. In data set [6], the “distribution of oxidized avidin in the lung” value is recorded as “homogenous in all lung compartments” and the “localisation of oxidized avidin in lung sections” value was “presence of oxidized avidin at broncho/epithelial level down to terminal bronchioles”. Besides, the “binding to bladder tissue” value in data set [7] (intact bladder tissue) is “completely inert”. Further, in data set [7] (region subjected to surgery), the “binding to bladder tissue” value is listed as “enabled the binding of oxidized avidin”.
